Data published in US20210301012A1 (UCB, published 2021).
Changes are numbered by the printed parent chain. Names may count otherwise.

B1: VHH6 (VHH)
VHH: DVQFVESGGGSVHAGGSLRLNCATSGYIYSTYCMGWFRQAPGKEREGVAHIYTNSGRTYYADSVKGRFTISQDNAKNTVYLQMNSLKPEDTAIYYCAARPSIRCASFSATEYKDWGQGTQVTVSS
notes: Camel single domain antibody expressed in Expi-HEK cells; The His tag was used for capture in Octet and in the NTA-chip SPR; also called wtVHH6; VHH6-6His; not shown: C-terminal TEV site and 6His tag (VHH6-6His)
B2: VHH6 Y27A Y32A (VHH)
VHH: B1 VHH with Y27A, Y32A
notes: Tested as ExpiHEK supernatant; also called 27/32 double mutant; not shown: C-terminal His tag (captured on NTA chip)
B3: VHH6 N74A S101A (VHH)
VHH: B1 VHH with N74A, S101A
notes: Tested as ExpiHEK supernatant; also called Asn74Ala/Ser101Ala; 74/101 double mutant; not shown: C-terminal His tag (captured on NTA chip)
B4: VHH6 K113S S101A (VHH)
VHH: B1 VHH with S101A, K113S
notes: The text describes only alanine substitutions; not shown: C-terminal His tag (captured on NTA chip)
B5: VHH6 Y32A (VHH)
VHH: B1 VHH with Y32A
notes: Tested as ExpiHEK supernatant; not shown: C-terminal His tag (captured on NTA chip)
B6: VHH6 K113A (VHH)
VHH: B1 VHH with K113A
notes: as for B5
B7: VHH6 S101A (VHH)
VHH: B1 VHH with S101A
notes: as for B5
B8: VHH6 N74A (VHH)
VHH: B1 VHH with N74A
notes: as for B5
B9: VHH6 Y27A (VHH)
VHH: B1 VHH with Y27A
notes: as for B5
B10: VHH6 K113A S101A (VHH)
VHH: B1 VHH with S101A, K113A
notes: Tested as ExpiHEK supernatant; also called Ser101Ala/Lys113Ala; 113/101 double mutant; not shown: C-terminal His tag (captured on NTA chip)
B11: gp80 (receptor, human, UniProt P08887 20-358, looked up)
chain: LAPRRCPAQEVARGVLTSLPGDSVTLTCPGVEPEDNATVHWVLRKPAAGSHPSRWAGMGRRLLLRSVQLHDSGNYSCYRAGRPAGTVHLLVDVPPEEPQLSCFRKSPLSNVVCEWGPRSTPSLTTKAVLLVRKFQNSPAEDFQEPCQYSQESQKFSCQLAVPEGDSSFYIVSMCVASSVGSKFSKTQTFQGCGILQPDPPANITVTAVARNPRWLSVTWQDPHSWNSSFYRLRFELRYRAERSKTFTTWMVKDLQHHCVIHDAWSGLRHVVQLRAQEEFGQGEWSEWSPEAMGTPWTESRSPPAENEVSTPMQALTTNKDDDNILFRDSANATSLPVQD
notes: Soluble gp80 as used in ELISA, MST, Octet, SEC and SPR; In part of the ELISA work the methods name gp80-hscFc (gp80 M1-P322, C211A, C277A, fused to single chain human IgG Fc); also called IL-6 receptor; CD126

Key:
[1] = target: T1, IL-6-gp80 complex (human, UniProt P05231 28-212; P08887 20-358); assay: MicroScale Thermophoresis, VHH6 titrated into IL-6-NT647 + gp80 (panel IL-6-NT647+gp80+VHH6)
T1 construct: Non-covalent transient heterodimer formed by mixing IL-6 and gp80
From the text: (§1) (a) ELISA: FusionIL-6, IL-6 or gp80 were immobilized overnight on plates. […] (b) MicroScale Thermophoresis (MST): IL-6 and gp80 were labelled with NT647.

[2] = target: T1, IL-6-gp80 complex; assay: SPR (BIAcore T200, 25 C), VHH6 immobilised, gp80 titrated (0-250 nM) with IL-6 constant at 2 uM
Description: (§2) Quantitative SPR analysis was carried out using a BIAcore T200 (GE Healthcare). The binding measurements were performed at a flow rate of 100 μl/min. The protein of interest was injected for 180 s and the dissociation was monitored for 360 s. […] The sensor surface was regenerated with […] MgCl₂. Background subtraction binding curves were analyzed using the T200 evaluation software (version 1.0) following standard procedures. Due to the complexity of the interactions studied, the data analysis was limited to the most informative, in this case kd parameter, which was determined by fitting a single exponential decay model to dissociation data within 360 s range.

[3] = target: T1, IL-6-gp80 complex; assay: SPR (BIAcore 3000), His-tagged VHH captured from supernatant on Ni-NTA chip, equimolar IL-6 + gp80 (50 nM each) injected
Description: (§3) SPR analysis was performed using a BIAcore 3000 (GE Healthcare). […] An equimolar mixture of IL-6 and gp80 (50 nM each) was injected for 300 s at a flow rate of 10 μl/min followed by a dissociation phase of 300 s. At the end of each cycle the chip surface was regenerated by injection of 350 mM EDTA (2×10 μl).
(§4) To assess the contributions of the side chains to binding, single alanine substitutions at positions 27, 32, 74, 101 and 113, and double alanine substitutions at positions 27/32, 74/101 and 113/101 were generated. […] In a three-component system, it is not possible to calculate meaningful association rate constants. However, the dissociation rate constants, being concentration independent, were determined.

[4] = target: T1, IL-6-gp80 complex; assay: SPR (BIAcore T200, 25 C), VHH6 immobilised, IL-6 titrated (0-250 nM) with gp80 constant at 2 uM
Description: as §2

[5] = target: T2, IL-6 (human, UniProt P05231 28-212); assay: ELISA, plate coated with IL-6, absorbance 630 nm
T2 construct: IL-6 as used in ELISA, MST, Octet, SEC and SPR; also called interleukin-6; hIL-6
Description: ELISA—IL-6, gp80 and FusionIL-6 used in ELISA to coat plates were diluted to a final concentration of […] in carbonate buffer (0.16% Na₂CO₃ and 0.3% NaHCO₃ in H₂O). Coated plates were incubated at 4° C. overnight. The following day, the plates were washed twice in PBST, blocked in PBS/5% BSA for 2 h at RT, and again washed twice in PBST. For preliminary screening, either supernatant from HEK cells or purified VHHs was added. Anti-llama-HRP or anti-His-HRP antibody was added for 1 h at RT. Afterwards the plates were washed twice with PBST and developed with TMB substrate. The reaction was stopped by adding NaF. […]

[6] = target: T1, IL-6-gp80 complex; assay: SPR (BIAcore 3000), His-tagged VHH captured from supernatant on Ni-NTA chip, equimolar IL-6 + gp80 (50 nM each) injected; remark: listed apart in the source
Description: as §3, §4

[7] = target: B11; assay: ELISA, plate coated with gp80, absorbance 630 nm
[8] = target: T1, IL-6-gp80 complex; assay: MicroScale Thermophoresis, VHH6 titrated into gp80-NT647 + IL-6 (panel gp80-NT647+IL-6+VHH6)
From the text: as §1

[9] = target: T1, IL-6-gp80 complex; assay: SPR, VHH captured on Ni-NTA chip, IL-6 + gp80 injected; reference VHH6
Description: as §3, §4

[10] = target: T2, IL-6; assay: SPR, IL-6 immobilised, gp80 injected, with VHH6 against without VHH6
From the text: For brevity, FIGS. 10a and b only report the SPR sensorgrams for IL-6 immobilization.

Row | koff [3] [s⁻¹] | koff [6] [s⁻¹] | Binder | other results
1 | 0.00036 | 0.00036 | B1 | EC50 (read off the curve) [1]: ~30 nM; koff [2]: 0.000375 s⁻¹; koff [4]: 0.000309 s⁻¹; binding result [5]: no binding; binding result [7]: no binding; EC50 (read off the curve) [8]: ~60 nM
2 | – | 0.00043 | B2 | –
3 | – | 0.00135 | B3 | fold increase of dissociation rate against VHH6 [9]: 3.8 fold
4 | – | 0.00164 | B4 | –
5 | 0.0003 | – | B5 | –
6 | 0.00026 | – | B6 | –
7 | 0.00039 | – | B7 | –
8 | 0.00015 | – | B8 | –
9 | 0.0007 | – | B9 | fold increase of dissociation rate against VHH6 [9]: 1.9 fold
10 | – | 0.00143 | B10 | fold increase of dissociation rate against VHH6 [9]: 4.3 fold
11 | – | – | B11 | fold reduction of koff by VHH6 [10]: 225 fold
